Test results: patent US20240218071A1 (ANHUI BIOX VISION BIOLOGICAL TECHNOLOGY, published 2024)

Tests used:
[1] = biological target: T1, human CD40 expressed on the cell surface (human, UniProt P25942 21-277); experiment: flow cytometry on CHO-K-huCD40 cells, APC anti-human IgG Fc secondary antibody
T1 construct: whole, on cells; Used for transfected CHO-K cells, for transfected Jurkat reporter cells (Met1-Gln277) and for the natural CD40 on Ramos cells and iDC; also called CHO-K-huCD40 cells; CHO cells expressing CD40
T1 sequence (P25942 21-277): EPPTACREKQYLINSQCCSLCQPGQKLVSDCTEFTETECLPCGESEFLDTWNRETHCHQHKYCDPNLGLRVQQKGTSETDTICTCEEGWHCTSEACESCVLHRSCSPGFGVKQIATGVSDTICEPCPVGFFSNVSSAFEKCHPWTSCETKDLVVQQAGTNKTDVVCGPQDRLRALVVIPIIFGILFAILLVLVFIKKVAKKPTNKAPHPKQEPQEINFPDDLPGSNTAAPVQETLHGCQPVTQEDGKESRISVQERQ
Protocol: (§1) To confirm the binding activity and cross-reactivity of the full-length anti-CD40 antibody prepared in example 1.4 of the present invention to CD40, CHO-K-huCD40 cells or CHO-K-cynoCD40 cells were seeded into a 96-well plate at 1.0×10⁵ cells/well. 100 μL of diluted anti-CD40 candidate antibody prepared in example 1.4 was added to the 96-well plate. […] Then, the cells were washed, and the binding of the full-length anti-CD40 antibody to CD40 molecules expressed on the cell was detected by flow cytometry.

[2] = biological target: T2, P17-Fc fusion protein (human CD40 extracellular domain fused to human IgG1 Fc) (human, UniProt P25942 21-193, limits assumed); experiment: ELISA of Fab on P17-Fc
T2 construct: CD40 ECD at the N-terminus of the human IgG1 Fc; expressed in CHO-K cells; also called CD40 ECD-Fc fusion protein; CD40 antigen P17-Fc; not shown: human IgG1 Fc fragment
T2 sequence (P25942 21-193 limits assumed): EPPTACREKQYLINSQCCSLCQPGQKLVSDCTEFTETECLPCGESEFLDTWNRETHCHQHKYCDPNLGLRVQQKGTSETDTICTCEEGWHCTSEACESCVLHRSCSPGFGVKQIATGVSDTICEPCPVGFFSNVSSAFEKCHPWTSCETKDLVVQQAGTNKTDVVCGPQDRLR

[3] = biological target: T3, cynomolgus monkey CD40 expressed on the cell surface (cynomolgus monkey, UniProt G7PG38 21-278); experiment: flow cytometry on CHO-K-cynoCD40 cells, APC anti-human F(ab')2 secondary antibody
T3 construct: also called CHO-K-cynoCD40 cells
T3 sequence (G7PG38 entry or part of it limits assumed): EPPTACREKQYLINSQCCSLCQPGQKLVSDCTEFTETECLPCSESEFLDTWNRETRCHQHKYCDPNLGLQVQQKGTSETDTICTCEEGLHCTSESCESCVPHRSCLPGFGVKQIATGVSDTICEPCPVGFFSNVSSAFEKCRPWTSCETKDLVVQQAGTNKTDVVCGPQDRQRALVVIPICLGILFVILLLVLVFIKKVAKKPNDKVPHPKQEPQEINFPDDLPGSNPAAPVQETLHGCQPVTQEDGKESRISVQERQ
Protocol: The CHO-K-huCD40 cells or CHO-K-cynoCD40 cells were seeded into a 96-well plate at 1.0×10⁵ cells/well, and diluted C8 anti-CD40 Fab candidate molecules were added. […] Then, the cells were washed, and the binding of the C8 anti-CD40 Fab candidate molecules to CD40 molecules expressed on the cell surface was detected by flow cytometry (Beckman Coulter).

[4] = biological target: T4, P17-His protein (human CD40 antigen) (human, UniProt P25942 21-193, limits assumed); experiment: BLI (Fortebio Octet RED96), antibody on Protein A sensor, P17-His 5-40 nM
T4 construct: also called human CD40 antigen (P17-His)
T4 sequence (P25942 other isoform, or with tags, fused parts or gaps limits assumed): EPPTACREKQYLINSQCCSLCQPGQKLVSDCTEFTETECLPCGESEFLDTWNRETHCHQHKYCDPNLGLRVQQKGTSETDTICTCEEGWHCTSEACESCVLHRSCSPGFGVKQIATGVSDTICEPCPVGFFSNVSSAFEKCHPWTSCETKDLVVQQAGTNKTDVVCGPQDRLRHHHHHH
Protocol: In this example, the affinity of C8 parent antibody (C8-WT) and affinity variant antibody for human CD40 antigen (P17-His) was detected using an Fortebio Octet RED96 instrument.
Material preparation: 1 g of BSA and 500 μL of Tween 20 were added to 1000 mL of 1×PBS and mixed uniformly. The mixture was filtered, and then subpackaged and stored. 0.1 mL of glycine solution (0.1 M, pH 2.0) was pipetted, 0.9 mL of ultrapure water was added, and the mixture was mixed uniformly. The antibodies were diluted to 10 μg/mL with a KB buffer, and the antigens were diluted with a KB buffer to serial concentration gradients, i.e., 40 nM, 20 nM, 10 nM, 5 nM and 0 nM.
Experiment procedure: The sample plate (GreinierBio, PN655209) was tested after a sensor (Protein A sensor) was pre-wetted in the dark for at least 10 min, and after confirming the accuracy, the test was performed according to the preset programs. KB buffer was added at 200 μL/well to the wells of columns 1, 10 and 12 of sample plate 1; the glycine solution (0.01 M, pH 2.0) was added to the wells of column 11; the prepared sample solution was added to the wells of columns 2-8 (5 replicate wells for one sample); and P17-His was sequentially added to the wells of column 9 in a descending order of the concentration.

[5] = biological target: T1, human CD40 expressed on the cell surface; experiment: flow cytometry on CHO-K-huCD40 cells, APC anti-human IgG secondary antibody
Protocol: (§2) 100 μL of diluted anti-CD40 candidate antibody prepared in example 4.3 was added to the 96-well plate. After incubation at 4° C. for 30 min, the cells were washed 5 times with a FACS buffer (PBS+5% FBS+2% BSA), added with 100 μL of APC-labeled anti-human IgG secondary antibody, and then incubated at 4° C. for 30 min. The cells were then washed and tested by flow cytometry.

[6] = biological target: T1, human CD40 expressed on the cell surface; experiment: as above; remark: listed apart in the source
Protocol: as §2

[7] = biological target: T3, cynomolgus monkey CD40 expressed on the …; experiment: flow cytometry on CHO-K-cynoCD40 cells, APC anti-human IgG Fc secondary antibody
Protocol: as §1

[8] = biological target: T5, full-length mouse CD40 expressed on CHO-K cells (mouse, UniProt P27512 20-289); experiment: flow cytometry on CHO-K-mouseCD40 cells, FITC anti-human IgG Fc secondary antibody
T5 construct: whole, on cells; also called CHO-K-mouseCD40 cells; mouse CD40 antigen
T5 sequence (P27512 20-289): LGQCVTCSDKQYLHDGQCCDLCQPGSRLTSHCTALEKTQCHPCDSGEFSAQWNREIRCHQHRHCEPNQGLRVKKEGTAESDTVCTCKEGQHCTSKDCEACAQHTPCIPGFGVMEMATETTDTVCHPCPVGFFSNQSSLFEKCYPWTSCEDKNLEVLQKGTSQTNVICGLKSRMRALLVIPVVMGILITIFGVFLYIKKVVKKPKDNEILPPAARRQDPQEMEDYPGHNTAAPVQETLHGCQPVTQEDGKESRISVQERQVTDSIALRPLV
Protocol: Similarly to example 1.3, CHO-K cells expressing full-length mouse CD40 (Uniprot: P27512) (hereinafter also referred to as “CHO-K-mouseCD40 cells”) were prepared. The cross-reactivity of the candidate C8 full-length anti-CD40 antibody prepared in example 1.4 to mouse CD40 was tested using the CHO-K-mouseCD40 cells. The CHO-K-mouseCD40 cells were seeded into a 96-well plate at 1.0×10⁵ cells/well. 100 μL of diluted anti-CD40 candidate antibody and two control antibodies (Dacetuzumab and APX005) were added to the 96-well plate, respectively. […] The cells were then washed and tested by flow cytometry.

Row | EC50 (read off the curve) [1] | EC50 [2] | binding result [3] | Kd [4] | koff [4] | kon [4] | EC50 (read off the curve) [5] | EC50 (read off the curve) [6] | binding result [7] | binding result [8] | Binder
1 | ~0.8 µg/mL | – | – | – | – | – | – | – | – | – | Dacetuzumab (antibody, V domains shown) VH: EVQLVESGGGLVQPGGSLRLSCAASGYSFTGYYIHWVRQAPGKGLEWVARVIPNAGGTSYNQKFKGRFTLSVDNSKNTAYLQMNSLRAEDTAVYYCAREGIYWWGQGTLVTVSS VL: DIQMTQSPSSLSASVGDRVTITCRSSQSLVHSNGNTFLHWYQQKPGKAPKLLIYTVSNRFSGVPSRFSGSGSGTDFTLTISSLQPEDFATYFCSQTTHVPWTFGQGTKVEIKR
2 | – | ~0.476 µg/mL | binds | – | – | – | – | – | – | – | C8 clone anti-CD40 Fab molecule (Fab, V domains shown, Expressed as a Fab fragment in CHO-K cells; also called C8 Fab; C8 clone Fab) VH: EVQLLESGGGLVRPGGSLRLSCAASGFTFGSYEMNWVRQAPGKGLEWVSYISSSGETTDYADSVKGRFTVSRDNSKNLLYLQMNSLRAEDTAVYYCARDVFFFDSSGDNGAYGMDVWGQGTMVTVSS VL: DIQLTQSPSSLTASVGDRVTITCRSSQGIRSSLAWYQQKPGKPPKLLIYGASSLEGGVPSRFSGSGSGTDFTLTISSLQPEDFATYYCQQLNSFPSTFGQGTKLEIK
3 | ~0.8 µg/mL | – | – | 19.3 nM | 0.0164 s⁻¹ | 853000 M⁻¹ s⁻¹ | ~0.8 µg/mL | ~0.9 µg/mL | binds | binds | C8 clone anti-CD40 full-length antibody (antibody, human IgG1, kappa, V domains shown, also called C8-WT; C8 parent antibody) VH: EVQLLESGGGLVRPGGSLRLSCAASGFTFGSYEMNWVRQAPGKGLEWVSYISSSGETTDYADSVKGRFTVSRDNSKNLLYLQMNSLRAEDTAVYYCARDVFFFDSSGDNGAYGMDVWGQGTMVTVSS VL: DIQLTQSPSSLTASVGDRVTITCRSSQGIRSSLAWYQQKPGKPPKLLIYGASSLEGGVPSRFSGSGSGTDFTLTISSLQPEDFATYYCQQLNSFPSTFGQGTKLEIKR
